Results: US12324447B2, “Animal feed compositions and uses thereof” (priority 2015, dated 2025)
“Also recorded” adds a separate entry of the source. Like-named read-outs stand apart in the source and are kept apart here. Marks after values point to notes of the source that are not given here.

Tests used:
[1] = system: Clostridium perfringens DSM756; assay type: cell-based; details: for Diameter of clearing zone (mm): lysozymes 100 μg/ml, Bacitracin zinc salt 50 μg/ml
[2] = In vivo piglet trial (growth performance); set-up: species or system weaned piglets (Large-White x Redon); details: for ADFI (g/d), Mean / ADWG (g/d), Mean / FCR, Mean: SEQ ID NO: 257 50 mg/kg feed, VevoVital 5000 mg/kg feed; for ADFI, % relative NC / ADWG, % relative NC / FCR, % relative NC: relative to negative control
[3] = In vivo broiler trial (growth performance)
[4] = system: M. lysodeikticus substrate; assay: Temperature stability: residual activity by OD drop after heat treatment; details: for Residual activity (%): OD drop pH 6
[5] = system: Micrococcus lysodeikticus ATTC No. 4698; assay: Lysozyme activity turbidity assay (optical density drop at 540 nm)
[6] = Thermostability by Differential Scanning Calorimetry (DSC); assay type: physicochemical; details: 50 mM Na-acetate, DSC 200 K/hour
[7] = system: Exiguobacterium undea (DSM14481); assay: Lysozyme activity turbidity assay (optical density drop at 540 nm); assay type: biochemical, Exiguobacterium undae
[8] = Finisher (d 36-42), SEQ ID NO: 257 25 mg/kg feed, Avilamycin 10 mg/kg
[9] = Finisher (d 36-42), relative to unsupplemented control
[10] = Grower (d 22-36), SEQ ID NO: 257 25 mg/kg feed, Avilamycin 10 mg/kg
[11] = Grower (d 22-36), relative to unsupplemented control
[12] = Starter (d 1-22), SEQ ID NO: 257 25 mg/kg feed, Avilamycin 10 mg/kg
[13] = Starter (d 1-22), relative to unsupplemented control
[14] = Whole period (day 1 to day 42), SEQ ID NO: 257 25 mg/kg feed, Avilamycin 10 mg/kg
[15] = Whole period, relative to unsupplemented control

B1: SEQ ID NO: 257: mature GH24 lysozyme from Trichophaea saccata, comprising a GH24 domain and a lysozyme enhancing domain (LED) (protein, listed as Trichophaea saccata)
chain: YPVKTDLHCRSSPSTSASIVRTYSSGTEVQIQCQTTGTSVQGSNVWDKTQHGCYVADYYVKTGHSGIFTTKCGSSSGGGSCKPPPINAATVALIKEFEGFVPKPAPDPIGLPTVGYGHLCKTKGCKEVPYSFPLTQETATKLLQSDIKTFTSCVSNYVKDSVKLNDNQYGALASWAFNVGCGNVQTSSLIKRLNAGENPNTVAAQELPKWKYAGGKVMPGLVRRRNAEVALFKKPSSVQAHPPKC
modifications: mat_peptide (1)..(245)
For B1, the “Diameter of clearing zone (mm)” value ([1]; Experiment 1, 1/2 MHB pH 6) was 11 mm, the “Diameter of clearing zone (mm)” value ([1]; Experiment 1, 1/10 MHB pH 7) was 9 mm and the “Diameter of clearing zone (mm)” value ([1]; Experiment 2, 1/10 MHB pH 7) was 8 mm. For the same molecule, the “Antimicrobial activity against Clostridium perfringens (in words)” value ([1]; RDA, tested conditions (1/10 MHB pH 7 and 1/2 MHB pH 6)) was “significant activity; also recorded: showed antimicrobial activity”, the “ADFI (g/d), Mean” value ([2]; day 0-14) was 333 g/day and the “ADWG (g/d), Mean” value ([2]; day 0-14) was 265 g/day. For the same molecule, the “FCR, Mean” value ([2]; day 0-14) was 1.272^b, the “ADFI, % relative NC” value ([2]; day 0-14) was 92.5% and the “ADWG, % relative NC” value ([2]; day 0-14) was 91.4%. For the same molecule, the “FCR, % relative NC” value ([2]; day 0-14) was 102.6%, the “ADFI (g/d), Mean” value ([2]; day 0-42) was 740^b g/d and the “ADWG (g/d), Mean” value ([2]; day 0-42) was 538 g/day. For the same molecule, the “FCR, Mean” value ([2]; day 0-42) was 1.379^a, the “ADFI, % relative NC” value ([2]; day 0-42) was 100.8% and the “ADWG, % relative NC” value ([2]; day 0-42) was 107.8%. For the same molecule, the “FCR, % relative NC” value ([2]; day 0-42) was 92.9%, the “ADFI (g/d), Mean” value ([2]; day 14-42) was 944^c g/d and the “ADWG (g/d), Mean” value ([2]; day 14-42) was 674 g/day. For the same molecule, the “FCR, Mean” value ([2]; day 14-42) was 1.404^a, the “ADFI, % relative NC” value ([2]; day 14-42) was 101.5% and the “ADWG, % relative NC” value ([2]; day 14-42) was 111.8%. For the same molecule, the “FCR, % relative NC” value ([2]; day 14-42) was 90.9%, the “Improvement on FCR compared to the negative control” value ([2]; overall period (day 0 to day 42), lysozyme 50 mg/kg, VevoVital 5000 mg/kg) was 7.1% and the “Improvement of ADWG compared to NC” value ([2]; starter period (days 14-42)) was 11.8%. The “Improvement to FCR compared to NC” value ([2]; starter period, from day 15 to day 42, SEQ ID NO: 257 50 mg/kg, VevoVital (PC)) was 9.1%, the “Improvement of ADWG compared to NC” value ([2]; whole period (day 0 to day 42)) was 7.8% and the FCR [3, 8] was 1.919. The “Feed intake (g/b)” value [3, 8] was 1524 g/b, the “Weight gain (g/b)” value [3, 8] was 800 g/b and the “FCR, Relative to C (%)” value [3, 9] was 97.9%. For the same molecule, the “Feed intake, Relative to C (%)” value [3, 9] was 102.5%, the “Weight gain, Relative to C (%)” value [3, 9] was 105.1% and the FCR [3, 10] was 1.714. The “Feed intake (g/b)” value [3, 10] was 2336 g/b, the “Weight gain (g/b)” value [3, 10] was 1364 g/b and the “FCR, Relative to C (%)” value [3, 11] was 99.5%. For the same molecule, the “Feed intake, Relative to C (%)” value [3, 11] was 102.2%, the “Weight gain, Relative to C (%)” value [3, 11] was 102.7% and the FCR [3, 12] was 1.414. For the same molecule, the “Feed intake (g/b)” value [3, 12] was 1603 g/b, the “Weight gain (g/b)” value [3, 12] was 1133 g/b and the “FCR, Relative to C (%)” value [3, 13] was 98.1%. For the same molecule, the “Feed intake, Relative to C (%)” value [3, 13] was 101.6%, the “Weight gain, Relative to C (%)” value [3, 13] was 103.4% and the EPEF [3, 14] was 425. The FCR [3, 14] was 1.657, the “Feed intake (g/b)” value [3, 14] was 5450 g/b and the Motality [3, 14] was 10.0. The “Weight gain (g/b)” value [3, 14] was 3290 g/b, the “EPEF, Relative to C (%)” value [3, 15] was 101.7% and the “FCR, Relative to C (%)” value [3, 15] was 98.6%. The “Feed intake, Relative to C (%)” value [3, 15] was 101.9%, the “Weight gain, Relative to C (%)” value [3, 15] was 103.3% and the “EPEF improvement compared to NC diet” value ([3]; whole period, GH24 lysozyme 25 mg/kg) was 1.7%. For the same molecule, the “FCR improvement compared to NC diet” value ([3]; whole period, GH24 lysozyme 25 mg/kg, Avilamycin 10 mg/kg) was 1.4%, the “Time for which the lysozyme is stable” value ([4]; at temperatures as high as 99° C.) was “at least 90 seconds” and the “Residual activity (%)” value ([4]; heat treatment 30 sec at 60 °C) was 93%. For the same molecule, the “Residual activity (%)” value ([4]; heat treatment 30 sec at 65 °C) was 99%, the “Residual activity (%)” value ([4]; heat treatment 30 sec at 70 °C) was 94% and the “Residual activity (%)” value ([4]; heat treatment 30 sec at 75 °C) was 101%. For the same molecule, the “Residual activity (%)” value ([4]; heat treatment 30 sec at 80 °C) was 94%, the “Residual activity (%)” value ([4]; heat treatment 30 sec at 85 °C) was 98% and the “Residual activity (%)” value ([4]; heat treatment 30 sec at 90 °C) was 94%. The “Residual activity (%)” value ([4]; heat treatment 30 sec at 95 °C) was 98%, the “Residual activity (%)” value ([4]; heat treatment 30 sec at 99 °C) was 93% and the “Residual activity (%)” value ([4]; heat treatment 60 sec at 60 °C) was 99%. For the same molecule, the “Residual activity (%)” value ([4]; heat treatment 60 sec at 65 °C) was 97%, the “Residual activity (%)” value ([4]; heat treatment 60 sec at 70 °C) was 93% and the “Residual activity (%)” value ([4]; heat treatment 60 sec at 75 °C) was 96%. For the same molecule, the “Residual activity (%)” value ([4]; heat treatment 60 sec at 80 °C) was 98%, the “Residual activity (%)” value ([4]; heat treatment 60 sec at 85 °C) was 94% and the “Residual activity (%)” value ([4]; heat treatment 60 sec at 90 °C) was 99%. For the same molecule, the “Residual activity (%)” value ([4]; heat treatment 60 sec at 95 °C) was 94%, the “Residual activity (%)” value ([4]; heat treatment 60 sec at 99 °C) was 97% and the “Residual activity (%)” value ([4]; heat treatment 90 sec at 60 °C) was 96%. For the same molecule, the “Residual activity (%)” value ([4]; heat treatment 90 sec at 65 °C) was 99%, the “Residual activity (%)” value ([4]; heat treatment 90 sec at 70 °C) was 98% and the “Residual activity (%)” value ([4]; heat treatment 90 sec at 75 °C) was 98%. The “Residual activity (%)” value ([4]; heat treatment 90 sec at 80 °C) was 97%, the “Residual activity (%)” value ([4]; heat treatment 90 sec at 85 °C) was 100% and the “Residual activity (%)” value ([4]; heat treatment 90 sec at 90 °C) was 97%. The “Residual activity (%)” value ([4]; heat treatment 90 sec at 95 °C) was 102%, the “Residual activity (%)” value ([4]; heat treatment 90 sec at 99 °C) was 89% and the “Lysozyme activity against Micrococcus lysodeikticus (in words)” value ([5]; OD drop assay) was “good activity”. The “Lysozyme Activity against Micrococcus lysodeikticus as measured by Optical Density Drop” value ([5]; assay pH 6) was “++”, the “Denaturation Temperature Td (° C.)” value ([6]; pH 4.5) was 70.0 °C and the “Denaturation Temperature Td (° C.)” value ([6]; pH 5.5) was 70.8 °C. The “Denaturation Temperature Td (° C.)” value ([6]; pH 6.5) was 69.7 °C, the “Lysozyme activity against Exiguobacterium undea (in words)” value ([7]; OD drop assay) was “good activity” and the “Lysozyme Activity against Exiguobacterium undae as measured by Optical Density Drop” value ([7]; assay pH 6) was “++”.
